Tested on: Escherichia coli TOP10
Assay: shrunken log2 fold change of peptide-encoding DNA abundance (4.5 h post-induction vs induction); higher = less antimicrobial activity (less host growth inhibition)
Details: time post-induction: 4.5 h; library: site-saturation at positions 5, 18, 19, 20
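Also: peptides expressed intracellularly from a pBAD plasmid library in pooled LB shake-flask culture, induced with 0.3% L-arabinose, DNA abundance read by NGS, three biological replicates, DESeq2 with apeglm shrinkage.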

Sequence	shrunken log2 fold change
RRIRKRPPRLPRPRPRPARPPRP	0.575
RRIRKRPPRLPRPRPRPATKPRP	0.253
RRIRKRPPRLPRPRPRPATWPRP	0.573
RRIRKRPPRLPRPRPRPAWNPRP	1
RRIRKRPPRLPRPRPRPAYFPRP	-0.0128
RRIRKRPPRLPRPRPRPAYIPRP	0.0173
RRIRKRPPRLPRPRPRPCAIPRP	0.101
RRIRKRPPRLPRPRPRPCAMPRP	0.367
RRIRKRPPRLPRPRPRPCATPRP	0.242
RRIRKRPPRLPRPRPRPCCCPRP	0.415
RRIRKRPPRLPRPRPRPCCSPRP	-0.189
RRIRKRPPRLPRPRPRPCDFPRP	-0.231
RRIRKRPPRLPRPRPRPCDLPRP	0.209
RRIRKRPPRLPRPRPRPCESPRP	-0.0138
RRIRKRPPRLPRPRPRPCEYPRP	0.0394
RRIRKRPPRLPRPRPRPCFCPRP	0.0588
RRIRKRPPRLPRPRPRPCGHPRP	0.0693
RRIRKRPPRLPRPRPRPCGIPRP	0.0772
RRIRKRPPRLPRPRPRPCIDPRP	-0.0418
RRIRKRPPRLPRPRPRPCIRPRP	-0.049
RRIRKRPPRLPRPRPRPCKNPRP	-0.0355
RRIRKRPPRLPRPRPRPCLMPRP	-0.0503
RRIRKRPPRLPRPRPRPCLQPRP	0.194
RRIRKRPPRLPRPRPRPCLSPRP	-0.161
RRIRKRPPRLPRPRPRPCMDPRP	-0.122

Sequence	shrunken log2 fold change
RRIRKRPPRLPRPRPRPCMNPRP	-0.279
RRIRKRPPRLPRPRPRPCNKPRP	0.0197
RRIRKRPPRLPRPRPRPCRKPRP	0.0153
RRIRKRPPRLPRPRPRPCSDPRP	-0.0361
RRIRKRPPRLPRPRPRPCSEPRP	0.296
RRIRKRPPRLPRPRPRPCSQPRP	0.0126
RRIRKRPPRLPRPRPRPCVPPRP	-0.14
RRIRKRPPRLPRPRPRPCWHPRP	0.00832
RRIRKRPPRLPRPRPRPCWLPRP	0.246
RRIRKRPPRLPRPRPRPCYCPRP	-0.0227
RRIRKRPPRLPRPRPRPCYVPRP	-0.69
RRIRKRPPRLPRPRPRPDAHPRP	0.534
RRIRKRPPRLPRPRPRPDASPRP	0.187
RRIRKRPPRLPRPRPRPDCAPRP	1.1
RRIRKRPPRLPRPRPRPDDDPRP	3.89
RRIRKRPPRLPRPRPRPDDWPRP	1.73
RRIRKRPPRLPRPRPRPDETPRP	3.04
RRIRKRPPRLPRPRPRPDEWPRP	0.268
RRIRKRPPRLPRPRPRPDFCPRP	0.129
RRIRKRPPRLPRPRPRPDFIPRP	-0.209
RRIRKRPPRLPRPRPRPDGHPRP	-0.0242
RRIRKRPPRLPRPRPRPDGIPRP	0.00242
RRIRKRPPRLPRPRPRPDHRPRP	0.139
RRIRKRPPRLPRPRPRPDISPRP	-0.0841
RRIRKRPPRLPRPRPRPDKIPRP	0.0555

Sequence	shrunken log2 fold change
RRIRKRPPRLPRPRPRPDLQPRP	0.0789
RRIRKRPPRLPRPRPRPDMKPRP	-0.0241
RRIRKRPPRLPRPRPRPDNQPRP	-0.233
RRIRKRPPRLPRPRPRPDPAPRP	0.688
RRIRKRPPRLPRPRPRPDPFPRP	-0.0704
RRIRKRPPRLPRPRPRPDPSPRP	-0.0338
RRIRKRPPRLPRPRPRPDQKPRP	0.401
RRIRKRPPRLPRPRPRPDRDPRP	0.00592
RRIRKRPPRLPRPRPRPDRLPRP	-0.038
RRIRKRPPRLPRPRPRPDRSPRP	-0.231
RRIRKRPPRLPRPRPRPDVEPRP	0.962
RRIRKRPPRLPRPRPRPDVPPRP	0.501
RRIRKRPPRLPRPRPRPDWDPRP	-0.193
RRIRKRPPRLPRPRPRPDWHPRP	0.0739
RRIRKRPPRLPRPRPRPDYAPRP	0.102
RRIRKRPPRLPRPRPRPDYGPRP	0.111
RRIRKRPPRLPRPRPRPEADPRP	0.00157
RRIRKRPPRLPRPRPRPEAPPRP	0.957
RRIRKRPPRLPRPRPRPECFPRP	0.7
RRIRKRPPRLPRPRPRPECGPRP	1.01
RRIRKRPPRLPRPRPRPECHPRP	-0.0136
RRIRKRPPRLPRPRPRPECMPRP	1.58
RRIRKRPPRLPRPRPRPECTPRP	3.42
RRIRKRPPRLPRPRPRPEELPRP	2.77
RRIRKRPPRLPRPRPRPEEQPRP	3.17

Sequence	shrunken log2 fold change
RRIRKRPPRLPRPRPRPEFAPRP	1.03
RRIRKRPPRLPRPRPRPEFVPRP	0.587
RRIRKRPPRLPRPRPRPEGLPRP	1.05
RRIRKRPPRLPRPRPRPEGSPRP	0.102
RRIRKRPPRLPRPRPRPEHLPRP	0.132
RRIRKRPPRLPRPRPRPEHSPRP	0.00628
RRIRKRPPRLPRPRPRPEHWPRP	0.428
RRIRKRPPRLPRPRPRPEIAPRP	2.48
RRIRKRPPRLPRPRPRPEICPRP	0.661
RRIRKRPPRLPRPRPRPEIHPRP	0.27
RRIRKRPPRLPRPRPRPEKGPRP	-0.00382
RRIRKRPPRLPRPRPRPEKSPRP	0.0144
RRIRKRPPRLPRPRPRPELDPRP	0.121
RRIRKRPPRLPRPRPRPEMYPRP	0.214
RRIRKRPPRLPRPRPRPEPHPRP	0.829
RRIRKRPPRLPRPRPRPEPKPRP	0.191
RRIRKRPPRLPRPRPRPEPLPRP	0.636
RRIRKRPPRLPRPRPRPEQEPRP	0.408
RRIRKRPPRLPRPRPRPESHPRP	-0.00766
RRIRKRPPRLPRPRPRPETQPRP	-0.119
RRIRKRPPRLPRPRPRPEWEPRP	0.271
RRIRKRPPRLPRPRPRPEWLPRP	0.576
RRIRKRPPRLPRPRPRPEWTPRP	0.0364
RRIRKRPPRLPRPRPRPEYAPRP	-0.000279
RRIRKRPPRLPRPRPRPEYMPRP	0.264

Sequence	shrunken log2 fold change
RRIRKRPPRLPRPRPRPEYYPRP	-0.053
RRIRKRPPRLPRPRPRPFCAPRP	0.588
RRIRKRPPRLPRPRPRPFCKPRP	0.326
RRIRKRPPRLPRPRPRPFCMPRP	-0.115
RRIRKRPPRLPRPRPRPFDGPRP	0.23
RRIRKRPPRLPRPRPRPFEHPRP	-0.0326
RRIRKRPPRLPRPRPRPFFDPRP	0.112
RRIRKRPPRLPRPRPRPFGWPRP	0.682
RRIRKRPPRLPRPRPRPFINPRP	-0.148
RRIRKRPPRLPRPRPRPFKEPRP	-0.0549
RRIRKRPPRLPRPRPRPFKRPRP	-0.00663
RRIRKRPPRLPRPRPRPFLQPRP	-0.0765
RRIRKRPPRLPRPRPRPFMMPRP	-0.1
RRIRKRPPRLPRPRPRPFNIPRP	0.186
RRIRKRPPRLPRPRPRPFPMPRP	0.0227
RRIRKRPPRLPRPRPRPFPTPRP	2.75
RRIRKRPPRLPRPRPRPFQAPRP	0.0945
RRIRKRPPRLPRPRPRPFQIPRP	0.0332
RRIRKRPPRLPRPRPRPFQLPRP	0.0661
RRIRKRPPRLPRPRPRPFRDPRP	0.222
RRIRKRPPRLPRPRPRPFSKPRP	-0.0535
RRIRKRPPRLPRPRPRPFSLPRP	-0.189
RRIRKRPPRLPRPRPRPFSVPRP	0.034
RRIRKRPPRLPRPRPRPFTLPRP	0.0269
RRIRKRPPRLPRPRPRPFVYPRP	-0.014

Sequence	shrunken log2 fold change
RRIRKRPPRLPRPRPRPFWQPRP	0.0521
RRIRKRPPRLPRPRPRPFWSPRP	-0.00917
RRIRKRPPRLPRPRPRPFYRPRP	0.0824
RRIRKRPPRLPRPRPRPGAEPRP	1.26
RRIRKRPPRLPRPRPRPGASPRP	0.787
RRIRKRPPRLPRPRPRPGCYPRP	0.144
RRIRKRPPRLPRPRPRPGDEPRP	0.128
RRIRKRPPRLPRPRPRPGFGPRP	1.35
RRIRKRPPRLPRPRPRPGFQPRP	0.138
RRIRKRPPRLPRPRPRPGGDPRP	0.16
RRIRKRPPRLPRPRPRPGGPPRP	0.453
RRIRKRPPRLPRPRPRPGGTPRP	0.504
RRIRKRPPRLPRPRPRPGHMPRP	0.177
RRIRKRPPRLPRPRPRPGICPRP	0.0428
RRIRKRPPRLPRPRPRPGKTPRP	-0.0179
RRIRKRPPRLPRPRPRPGKVPRP	0.248
RRIRKRPPRLPRPRPRPGMAPRP	0.315
RRIRKRPPRLPRPRPRPGMDPRP	0.195
RRIRKRPPRLPRPRPRPGMYPRP	0.102
RRIRKRPPRLPRPRPRPGRDPRP	0.688
RRIRKRPPRLPRPRPRPGRTPRP	0.223
RRIRKRPPRLPRPRPRPGTVPRP	0.0317
RRIRKRPPRLPRPRPRPGWAPRP	1.04
RRIRKRPPRLPRPRPRPGWHPRP	0.133
RRIRKRPPRLPRPRPRPHAVPRP	0.132

Reference: the supplement of paper PMC9112550, “Optimization of the antimicrobial peptide Bac7 by deep mutational scanning” (BMC Biology, 2022)
